Patent US20190276499A1, “Protein VII Fragments and Methods of Use Thereof for the Treatment of Inflammatory Disorders” (priority 2016, published 2019)

How the values were obtained:
[1] = system: cellular chromatin; experiment: Chromatin appearance in inducible cell lines (immunofluorescence, DAPI); format: cell-based; settings: inducible expression
Text: Primary small airway epithelial cells (SAECs), U2OS, HeLa, 293, THP-1 and A549 cells were obtained from the American Tissue Culture Collection (ATCC) and grown according to the provider's instructions. Acceptor cells for generation of inducible cell lines were used as reported (Khandelia et al. (2011) Proc. Natl. Acad. Sci., 108:12799-12804). Protein VII, preVII and V were cloned from genomic DNA isolated from HeLa cells infected with adenovirus type 5 and inserted into the inducible plasmid cassette with a C-terminal HA tag using restriction enzymes BsrGI and AgeI. Positive clones were selected in DH5a cells, sequenced, and transfected into A549, U2OS or HeLa acceptor cells along with plasmid expressing the Cre recombinase. Recombined clones were selected by puromycin resistance (1 μg/mL) and induced with doxycycline (0.2 μg/mL) to express the desired protein. Protein expression was verified by immunofluorescence and western blot. All figures shown are after 4 days of induction unless otherwise stated. Protein VII and preVII were also verified by HPLC purification and mass spectrometry analysis. Point mutations were generated by gene synthesis from Genewiz.
Cells were grown on glass coverslips in 24-well plates and either infected or induced with doxycycline (0.2 μg/mL). […]

[2] = target: T1, HMGB1 (Homo sapiens, UniProt P09429); experiment: In vitro binding assay: recombinant protein VII-His with HMGB1-GST, cobalt resin pull-down; settings: equimolar HMGB1-GST and protein VII-His
T1 sequence (P09429 1-215): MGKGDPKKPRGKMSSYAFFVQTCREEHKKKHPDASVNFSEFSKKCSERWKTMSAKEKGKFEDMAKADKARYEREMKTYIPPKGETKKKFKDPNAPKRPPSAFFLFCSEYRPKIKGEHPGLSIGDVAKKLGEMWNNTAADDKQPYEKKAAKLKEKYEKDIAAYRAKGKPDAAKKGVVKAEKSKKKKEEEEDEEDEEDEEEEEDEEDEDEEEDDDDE
Procedure: HMGB1-GST (Abnova) or GST (Sigma) were combined with recombinant protein VII-His at equimolar ratios and incubated at 4° C. for 1 hour. Complexes were then mixed with a cobalt resin (ThermoScientific 89964) to bind protein VII-His and any associated protein and washed three times in the binding buffer (50 mM Tris pH 8, 300 mM NaCl, 0.1% IGEPAL). The beads were then boiled in sample buffer, separated on a 4-12% NuPage gel and visualized by coomassie staining.

[3] = system: DNA; experiment: Gel shift of recombinant protein VII-His with 195 bp DNA; format: binding; settings: purified recombinant protein
Procedure: Gel shift and MNase digestion assays were carried out as described (Falk et al. (2015) Science 348:699-703; Hasson et al. (2013) Nat. Struct. Mol. Biol., 20:687-695; Sekulic et al. (2010) Nature 467:347-351). Briefly, nucleosomes were reconstituted by incubating purified recombinant histones with ‘601’ DNA of either 195 or 147 bp over a series of dialysis. Recombinant protein VII-His was then combined with nucleosomes at various molar ratios, incubated at room temperature for 15 minutes, and analyzed by native gel electrophoresis. Complexes were also digested with MNase (Affymetrix) by addition of 1 unit per μg of DNA for 147 bp nucleosome experiments and 0.1 unit per μg of DNA for 195 bp nucleosome experiments, incubated at 22° C. for varying amounts of time followed by the addition of EGTA and guanidine thiocyanate to stop the reaction. The DNA fragments were then purified using a MinElute PCR purification kit (Qiagen) and analyzed on an Agilent 2100 Bioanalyzer as described (Falk et al. (2015) Science 348:699-703).

[4] = target: T1, HMGB1; experiment: Release assay of HMGB1 in THP-1 cells; format: cell-based; set-up: endogenous in cells; settings: PMA-treated THP-1 cells, LPS plus nigericin
Procedure: (§1) THP-1 cells were seeded at a density of 2×10^5 cells per well in a 24-well plate, and stimulated into macrophage-like cells by addition of 10 ng/mL PMA for 48 hours. Cells were washed in PBS and transduced with recombinant adenovirus vectors expressing only GFP or protein VII-GFP such that >90% of cells were GFP positive. At 48 hours post transduction, cells were washed and 200 μL of serum free RPMI was added. To stimulate the inflammasome, LPS (Sigma-Aldrich L2880) with a final concentration of 0.5 μg/mL was added to wells and incubated for 2 hours, then nigericin (Sigma-Aldrich N7143) was added with a final concentration of 10 μM for 1 hour. Supernatants were collected and proteins precipitated overnight at 4° C. with a final concentration of 20% trichloroacetic acid (Sigma), washed with acetone, dried, and resuspended in 1×sample buffer with reducing agent (Invitrogen). For ELISA analysis, supernatants were harvested directly and HMGB1 content was detected by the manufacturer's instructions (Chondrex 6010). Cells were also harvested by the addition of 1×sample buffer with reducing agent (Invitrogen) and boiled. Supernatants and lysates were analyzed together by western blot.

[5] = target: T2, HMGB2 (Homo sapiens, UniProt P26583); experiment: Release assay of HMGB2 in THP-1 cells; format: cell-based; settings: PMA-treated THP-1 cells, LPS plus nigericin
T2 construct: endogenous in cells; host or cells: THP-1 (PMA-differentiated)
T2 sequence (P26583 1-209): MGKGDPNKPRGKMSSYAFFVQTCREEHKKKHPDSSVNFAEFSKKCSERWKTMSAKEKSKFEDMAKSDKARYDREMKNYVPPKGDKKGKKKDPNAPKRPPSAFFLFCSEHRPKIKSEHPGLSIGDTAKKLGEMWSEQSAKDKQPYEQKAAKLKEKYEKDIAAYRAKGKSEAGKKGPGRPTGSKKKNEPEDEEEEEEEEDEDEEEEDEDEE
Procedure: as §1

[6] = system: LPS induced lung injury; experiment: Murine model of LPS induced lung injury, BAL fluid analysis; format: in vivo, mouse; settings: 24 hours after LPS exposure, versus mice expressing GFP
Procedure: All mice were housed in SPF conditions. All studies in mice were carried out in accordance with the recommendations in the Guide for the Care and Use of Laboratory Animals of the National Institutes of Health. C57BL/6J male mice aged 8-10 weeks were used for experiments. Mice were sedated with ketamine and xylazine. Once sedated, mice underwent orotrachial intubation, as described (Das et al. (2013) J. Vis. Exp., (73):e50318), with a 20G angiocatheter from BD (Franklin Lakes, N.J.). Mice subsequently received 5e10 GC of recombinant adenovirus expressing VII-GFP or GFP purified as described above. Four days after infection, mice were exposed to aerosolized LPS, 3 mg/mL for 30 minutes as described (Jeyaseelan et al. (2004) Infect. Immun., 72:7247-7256). One day after LPS exposure, BAL, and lung tissue were harvested as detailed (Nick et al. (2000) J. Immunol., 164:2151-2159) and examined for HMGB1 content (ELISA, Chondrex 6010) and neutrophil count (hematoxylin and eosin stain kit EMD 65044/93). Immunostaining was carried out using standard methods. A minimum of four biological replicates were used for each condition studied. Mice were assigned a random number and color at the start of the experiment and were randomized. Technicians carrying out the experiments were blinded to the identity of the samples. Tissue samples were assigned a random study number such that the technician performing the analysis was blinded. Unblinding for the purpose of data analysis occurred only after all data had been collected.

[7] = target: T3, mouse HMGB1 (Mus musculus, UniProt P63158); experiment: Mouse embryonic fibroblast (MEF) cells transduced to express protein VII-GFP: immunofluorescence and salt fractionation; format: cell-based
T3 construct: endogenous in cells; host or cells: mouse embryonic fibroblasts (MEF)
T3 sequence (P63158 1-215): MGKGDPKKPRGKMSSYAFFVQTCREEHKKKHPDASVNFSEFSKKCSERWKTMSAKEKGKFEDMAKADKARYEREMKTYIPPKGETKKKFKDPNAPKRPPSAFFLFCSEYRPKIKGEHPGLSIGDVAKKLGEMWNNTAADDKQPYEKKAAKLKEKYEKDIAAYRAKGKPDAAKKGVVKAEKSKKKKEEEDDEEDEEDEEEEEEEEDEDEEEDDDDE
Procedure: Cells were grown on glass coverslips in 24-well plates and either infected or induced with doxycycline (0.2 μg/mL). Cells were harvested for immunofluorescence at the indicated time points, washed in phosphate-buffered saline (PBS), fixed in 4% paraformaldehyde for 15 minutes and post-fixed with 100% ice-cold methanol for 5 minutes. Coverslips were then blocked and stained as described (Lilley et al. (2011) PLoS Pathog., 7:e1002084) and mounted using ProLong Gold Antifade Reagent (Life Technologies). Immunofluorescence was visualized using a Zeiss LSM Confocal microscope and ZEN 2011 software. Images were processed using ImageJ and assembled with Adobe CS6. All scale bars show in the Figures are 10 μm unless otherwise stated.
Salt fractionation of nuclei was adapted from established protocols (Zaret, K. (2005) Micrococcal nuclease analysis of chromatin structure. Curr. Protoc. Mol., Biol. Chapter 21, Unit 21.1; Teves et al. (2012) Methods Mol. Biol., 833:421-432). […] The final pellet was resuspended in 400 μL ddH2O and all samples were analyzed together by western blot. An aliquot of each supernatant was set aside for DNA purification using a PCR purification kit (Qiagen) and analyzed by agarose gel electrophoresis. […]

For “PRM1: human protamine PRM1, a basic protein involved in sperm DNA compaction (ARYRCCRSQSRSRYYRQRQRSRRRRRRSCQTRRRAMRCCRPRYRPRCRRH; UniProt P04553 2-51, looked up) [reference compound]”, the “Effect on chromatin appearance” value [1] was “did not affect chromatin appearance”.

B1: recombinant protein VII: Ad5 protein VII with C-terminal hexahistidine tag, purified from E. coli (protein)
chain: AKKRSDQHPVRVRGHYRAPWGAHKRGRTGRTTVDDAIDAVVEEARNYTPTPPPVSTVDAAIQTVVRGARRYAKMKRRRRRVARRHRRRPGTAAQRAAAALLNRARRTGRRAAMRAARRLAAGIVTVPPRSRRRAAAAAAAAISAMTQGRRGNVYWVRDSVSGLRVPVRTRPPRN
modifications: left off: small tags and cut ends
notes: Ad5 protein VII with C-terminal hexahistidine tag, purified from E. coli
For B1, the “Direct binding of recombinant protein VII to HMGB1 in vitro” value [2] was “Direct binding” and the DNA binding [3] was “binds to DNA”.

B2: protein VII-GFP (protein)
chain: AKKRSDQHPVRVRGHYRAPWGAHKRGRTGRTTVDDAIDAVVEEARNYTPTPPPVSTVDAAIQTVVRGARRYAKMKRRRRRVARRHRRRPGTAAQRAAAALLNRARRTGRRAAMRAARRLAAGIVTVPPRSRRRAAAAAAAAISAMTQGRRGNVYWVRDSVSGLRVPVRTRPPRN
modifications: left off: large carriers
With B2 the HMGB1 in supernatants [4] was “sufficient to inhibit HMGB1 and HMGB2 release”, the HMGB2 in supernatants [5] was “sufficient to inhibit HMGB1 and HMGB2 release” and the “HMGB1 in BAL fluid” value [6] was “decreases HMGB1”. For the same molecule, the “Neutrophils in BAL fluid” value [6] was “significantly fewer”, the “Relocalization of mouse HMGB1” value [7] was “sufficient to relocalize mouse HMGB1” and the “Retention of mouse HMGB1 in the high salt fraction” value [7] was “sufficient to retain mouse HMGB1 in the high salt fraction”.
